From PMC12170185
pKd: −log10 of the molar value.

Key:
Assay in all cases: fluorescence anisotropy
Conditions in all cases: FA: 25 mM HEPES pH 7.45, 150 mM NaCl, 5% glycerol, 10 nM probe, temperature not stated, EMSA: 250 nM probe in 25 mM HEPES pH 7.45, 100 mM NaCl
UPF2L = UPF2L (UniProt Q9HAU5)
UPF2 MIF4G-D3 = UPF2 MIF4G-D3 (UniProt Q9HAU5)
UPF2 MIF4G-D1-2 = UPF2 MIF4G-D1-2 (UniProt Q9HAU5)
UPF2 MIF4G-D2-3 = UPF2 MIF4G-D2-3 (UniProt Q9HAU5)
UPF2 MIF4G-D2 = UPF2 MIF4G-D2 (UniProt Q9HAU5)
UPF2 MIF4G-D1 = UPF2 MIF4G-D1 (UniProt Q9HAU5)
Chain of UPF2 MIF4G-D1 (Q9HAU5 120-486): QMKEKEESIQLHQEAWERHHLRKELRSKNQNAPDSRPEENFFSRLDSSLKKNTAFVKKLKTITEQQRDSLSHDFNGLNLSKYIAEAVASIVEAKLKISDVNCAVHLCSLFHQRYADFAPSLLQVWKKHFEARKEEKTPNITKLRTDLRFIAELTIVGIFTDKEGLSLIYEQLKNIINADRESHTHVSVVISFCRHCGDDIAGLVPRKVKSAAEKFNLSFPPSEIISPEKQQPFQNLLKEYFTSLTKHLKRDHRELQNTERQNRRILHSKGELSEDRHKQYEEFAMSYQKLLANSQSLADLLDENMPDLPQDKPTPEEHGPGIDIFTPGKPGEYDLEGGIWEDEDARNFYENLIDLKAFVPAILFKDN

Chain of UPF2 MIF4G-D3 (Q9HAU5 761-1054): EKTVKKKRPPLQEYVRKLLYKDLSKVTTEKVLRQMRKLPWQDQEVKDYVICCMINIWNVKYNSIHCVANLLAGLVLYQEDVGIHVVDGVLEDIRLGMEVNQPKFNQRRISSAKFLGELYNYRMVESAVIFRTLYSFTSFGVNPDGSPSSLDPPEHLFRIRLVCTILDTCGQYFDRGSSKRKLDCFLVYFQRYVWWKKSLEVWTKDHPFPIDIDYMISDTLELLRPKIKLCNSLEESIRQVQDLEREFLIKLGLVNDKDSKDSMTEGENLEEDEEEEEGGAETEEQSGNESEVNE
Chain of UPF2L (Q9HAU5 121-1227): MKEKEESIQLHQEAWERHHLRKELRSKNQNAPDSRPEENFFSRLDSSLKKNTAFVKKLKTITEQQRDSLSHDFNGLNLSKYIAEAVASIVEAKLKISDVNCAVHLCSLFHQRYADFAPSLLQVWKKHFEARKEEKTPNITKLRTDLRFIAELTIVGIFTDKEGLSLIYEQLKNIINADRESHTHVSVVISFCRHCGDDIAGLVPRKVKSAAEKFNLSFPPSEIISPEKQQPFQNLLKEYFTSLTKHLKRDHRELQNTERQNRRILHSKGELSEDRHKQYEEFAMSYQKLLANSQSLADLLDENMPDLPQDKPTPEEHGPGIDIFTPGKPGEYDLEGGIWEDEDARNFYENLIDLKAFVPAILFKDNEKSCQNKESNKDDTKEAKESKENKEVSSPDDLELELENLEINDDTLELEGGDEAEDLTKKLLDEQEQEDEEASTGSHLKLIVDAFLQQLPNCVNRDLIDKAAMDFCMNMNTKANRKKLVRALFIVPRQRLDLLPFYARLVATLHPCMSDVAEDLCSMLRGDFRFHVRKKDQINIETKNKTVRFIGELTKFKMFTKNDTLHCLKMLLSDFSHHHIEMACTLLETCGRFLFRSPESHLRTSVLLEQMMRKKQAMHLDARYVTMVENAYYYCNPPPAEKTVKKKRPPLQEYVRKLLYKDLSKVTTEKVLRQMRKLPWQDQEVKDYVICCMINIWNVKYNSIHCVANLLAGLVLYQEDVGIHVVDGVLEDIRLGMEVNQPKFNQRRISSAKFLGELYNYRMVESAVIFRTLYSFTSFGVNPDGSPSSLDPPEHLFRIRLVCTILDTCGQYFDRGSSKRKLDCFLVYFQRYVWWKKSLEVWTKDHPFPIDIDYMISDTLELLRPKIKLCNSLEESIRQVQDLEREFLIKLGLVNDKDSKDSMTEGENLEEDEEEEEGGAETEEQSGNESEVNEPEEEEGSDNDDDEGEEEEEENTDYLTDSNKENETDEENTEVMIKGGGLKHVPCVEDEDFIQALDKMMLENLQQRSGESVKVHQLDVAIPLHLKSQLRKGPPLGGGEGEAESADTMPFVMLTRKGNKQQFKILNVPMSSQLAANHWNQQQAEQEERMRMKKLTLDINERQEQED
Chain of UPF2 MIF4G-D2 (Q9HAU5 455-757): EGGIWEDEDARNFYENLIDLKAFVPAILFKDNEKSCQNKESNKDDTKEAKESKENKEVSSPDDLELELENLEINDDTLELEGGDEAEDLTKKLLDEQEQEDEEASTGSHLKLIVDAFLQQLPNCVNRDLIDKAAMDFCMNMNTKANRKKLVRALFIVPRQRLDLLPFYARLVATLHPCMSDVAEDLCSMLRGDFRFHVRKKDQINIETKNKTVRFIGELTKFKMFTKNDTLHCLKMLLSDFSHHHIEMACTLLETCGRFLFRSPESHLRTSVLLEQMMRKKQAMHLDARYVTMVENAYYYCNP
Chain of UPF2 MIF4G-D2-3 (Q9HAU5 455-1054): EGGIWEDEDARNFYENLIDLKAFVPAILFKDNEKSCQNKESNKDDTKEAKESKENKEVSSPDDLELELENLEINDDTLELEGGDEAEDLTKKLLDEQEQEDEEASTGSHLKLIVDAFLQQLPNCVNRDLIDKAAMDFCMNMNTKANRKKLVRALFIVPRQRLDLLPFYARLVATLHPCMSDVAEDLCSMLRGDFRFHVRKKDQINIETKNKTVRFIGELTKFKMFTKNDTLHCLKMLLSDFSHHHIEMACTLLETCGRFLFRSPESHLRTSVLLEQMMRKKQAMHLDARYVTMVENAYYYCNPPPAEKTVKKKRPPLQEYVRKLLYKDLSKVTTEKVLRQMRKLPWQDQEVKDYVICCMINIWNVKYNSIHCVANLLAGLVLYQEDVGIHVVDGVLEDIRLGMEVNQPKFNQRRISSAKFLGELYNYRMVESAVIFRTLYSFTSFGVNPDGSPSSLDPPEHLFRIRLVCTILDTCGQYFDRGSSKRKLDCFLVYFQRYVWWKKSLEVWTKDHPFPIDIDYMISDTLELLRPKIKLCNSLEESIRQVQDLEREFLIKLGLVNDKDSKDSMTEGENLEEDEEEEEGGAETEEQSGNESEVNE
Chain of UPF2 MIF4G-D1-2 (Q9HAU5 120-757): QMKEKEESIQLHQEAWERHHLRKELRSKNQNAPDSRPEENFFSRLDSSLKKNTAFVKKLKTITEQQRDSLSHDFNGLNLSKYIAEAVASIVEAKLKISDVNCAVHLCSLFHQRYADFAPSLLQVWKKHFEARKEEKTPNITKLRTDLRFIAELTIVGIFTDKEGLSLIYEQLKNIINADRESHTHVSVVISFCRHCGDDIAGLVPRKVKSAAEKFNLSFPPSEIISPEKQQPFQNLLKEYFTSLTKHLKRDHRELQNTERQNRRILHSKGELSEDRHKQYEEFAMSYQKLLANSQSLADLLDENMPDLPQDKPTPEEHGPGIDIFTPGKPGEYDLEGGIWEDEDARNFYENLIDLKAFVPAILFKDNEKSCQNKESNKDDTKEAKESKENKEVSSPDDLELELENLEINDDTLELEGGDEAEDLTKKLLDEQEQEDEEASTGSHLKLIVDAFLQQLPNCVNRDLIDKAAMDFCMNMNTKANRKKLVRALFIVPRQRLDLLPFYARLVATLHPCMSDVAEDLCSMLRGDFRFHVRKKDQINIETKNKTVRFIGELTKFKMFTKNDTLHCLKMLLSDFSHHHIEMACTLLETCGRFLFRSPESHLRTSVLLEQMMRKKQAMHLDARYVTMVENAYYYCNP

| Substance | pKd (UPF2L) | pKd (UPF2 MIF4G-D3) | pKd (UPF2 MIF4G-D1-2) | pKd (UPF2 MIF4G-D2-3) | pKd (UPF2 MIF4G-D2) | pKd (UPF2 MIF4G-D1) |
| --- | --- | --- | --- | --- | --- | --- |
| 13 nt PUR ss-RNA | 6.17 | 5.89 |  |  |  |  |
| 24 nt ds-RNA | 6.34 |  |  |  |  |  |
| 24 nt ss-DNA | 6.37 |  |  |  |  |  |
| 13 nt PYR ss-RNA | 6.19 | 6.28 |  |  |  |  |
| 24 nt ss-RNA | 6.87 | 6.16 | 6.11 | 6.28 | 5.46 | 5.85 |
| 24 nt ds-DNA | 6.48 |  |  |  |  |  |
